Here are results for 4 sequences from the supplement of paper PMC5998384.

Series [1] relates to HeLa Kyoto. Kind of series: solubility in G1/S (NP-40 vs SDS abundance) (log2 ratio); higher = more soluble. The settings on record: cell cycle stage: G1/S.
Series [2] deals with HeLa Kyoto. Kind of series: melting temperature (median over replicates), in situ; higher = more thermally stable.
For series [3], the system named is HeLa Kyoto. Put plainly: solubility change mitosis vs G1/S (difference of NP-40 vs SDS log2 ratios) (log2 ratio difference); higher = more soluble in mitosis.
For series [4], the system named is HeLa Kyoto. Kind of series: thermal stability score vs G1/S (z-score of summed log2 fold changes over temperatures); higher = more thermally stable than in G1/S.
The mark [5] stands for this setting: cell cycle stage: early G1 (4.5 h after nocodazole release).
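For melting temperature (median over replicates), in situ in this document: HeLa Kyoto cells synchronized by double thymidine or nocodazole block, proteins quantified by TMT10plex mass spectrometry, three independent biological replicates.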
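For solubility change mitosis vs G1/S (difference of NP-40 vs SDS log2 ratios) in this document: synchronized HeLa Kyoto cells (double thymidine block for G1/S, nocodazole release for mitosis), protein amounts in NP-40 versus SDS lysates quantified by mass spectrometry, three biological replicates.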
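For solubility in G1/S (NP-40 vs SDS abundance) in this document: HeLa Kyoto cells arrested at G1/S by double thymidine block, proteins quantified by TMT10plex mass spectrometry in mild NP-40 versus SDS extracts, three biological replicates.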
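For thermal stability score vs G1/S (z-score of summed log2 fold changes over temperatures) in this document: synchronized HeLa Kyoto cells, proteins quantified by TMT10plex mass spectrometry, three biological replicates, mitosis taken 0.5 h after nocodazole release, G1/S directly after double thymidine block.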

Regarding “MTTETGPDSEVKKAQEEAPQQPEAAAAVTTPVTPAGHGHPEANSNEKHPSQQDTRPAEQSLDMEEKDYSEADGLSERTTPSKAQKSPQKIAKKYKSAICRVTLLDASEYECEVEKHGRGQVLFDLVCEHLNLLEKDYFGLTFCDADSQKNWLDPSKEIKKQIRSSPWNFAFTVKFYPPDPAQLTEDITRYYLCLQLRADIITGRLPCSFVTHALLGSYAVQAELGDYDAEEHVGNYVSELRFAPNQTRELEERIMELHKTYRGMTPGEAEIHFLENAKKLSMYGVDLHHAKDSEGIDIMLGVCANGLLIYRDRLRINRFAWPKILKISYKRSNFYIKIRPGEYEQFESTIGFKLPNHRSAKRLWKVCIEHHTFFRLVSPEPPPKGFLVMGSKFRYSGRTQAQTRQASALIDRPAPFFERSSSKRYTMSRSLDGAEFSRPASVSENHDAGPDGDKRDEDGESGGQRSEAEEGEVRTPTKIKELKPEQETTPRHKQEFLDKPEDVLLKHQASINELKRTLKEPNSKLIHRDRDWERERRLPSSPASPSPKGTPEKANERAGLREGSEEKVKPPRPRAPESDTGDEDQDQERDTVFLKDNHLAIERKCSSITVSSTSSLEAEVDFTVIGDYHGSAFEDFSRSLPELDRDKSDSDTEGLLFSRDLNKGAPSQDDESGGIEDSPDRGACSTPDMPQFEPVKTETMTVSSLAIRKKIEPEAVLQTRVSAMDNTQQVDGSASVGREFIATTPSITTETISTTMENSLKSGKGAAAMIPGPQTVATEIRSLSPIIGKDVLTSTYGATAETLSTSTTTHVTKTVKGGFSETRIEKRIIITGDEDVDQDQALALAIKEAKLQHPDMLVTKAVVYRETDPSPEERDKKPQES [EPB41L1]”, the “solubility in G1/S (log2)” value in the series on HeLa Kyoto [1] was -0.0349. The melting temperature with HeLa Kyoto [2] (cell cycle stage: G1/S) came out at 49.6 °C; in the series on HeLa Kyoto [2] (cell cycle stage: mitosis), 50 °C. Further, the “solubility change mitosis (log2)” value with HeLa Kyoto [3] was -0.0516. Also, the thermal stability score with HeLa Kyoto [4] (setting [5]) was 0.332; with HeLa Kyoto [4] (cell cycle stage: mitosis), 0.235.

For the sequence “MTTPALLPLSGRRIPPLNLGPPSFPHHRATLRLSEKFILLLILSAFITLCFGAFFFLPDSSKHKRFDLGLEDVLIPHVDAGKGAKNPGVFLIHGPDEHRHREEEERLRNKIRADHEKALEEAKEKLRKSREEIRAEIQTEKNKVVQEMKIKENKPLPPVPIPNLVGIRGGDPEDNDIREKREKIKEMMKHAWDNYRTYGWGHNELRPIARKGHSPNIFGSSQMGATIVDALDTLYIMGLHDEFLDGQRWIEDNLDFSVNSEVSVFEVNIRFIGGLLAAYYLSGEEIFKIKAVQLAEKLLPAFNTPTGIPWAMVNLKSGVGRNWGWASAGSSILAEFGTLHMEFIHLSYLTGDLTYYKKVMHIRKLLQKMDRPNGLYPNYLNPRTGRWGQYHTSVGGLGDSFYEYLLKAWLMSDKTDHEARKMYDDAIEAIEKHLIKKSRGGLTFIGEWKNGHLEKKMGHLACFAGGMFALGADGSRADKAGHYLELGAEIARTCHESYDRTALKLGPESFKFDGAVEAVAVRQAEKYYILRPEVIETYWYLWRFTHDPRYRQWGWEAALAIEKYCRVNGGFSGVKDVYSSTPTHDDVQQSFFLAETLKYLYLLFSGDDLLPLDHWVFNTEAHPLPVLHLANTTLSGNPAVR [MAN1A2]”, the “solubility in G1/S (log2)” value in the series with HeLa Kyoto [1] is -0.0642. Further, the figures for the melting temperature in the series with HeLa Kyoto [2] (cell cycle stage: G1/S) and in the series on HeLa Kyoto [2] (cell cycle stage: mitosis) were 54.1 °C and 54.3 °C, respectively. For the same sequence, in the series on HeLa Kyoto [3], the “solubility change mitosis (log2)” value is -0.0976. The values for the thermal stability score with HeLa Kyoto [4] (setting [5]) and in the series with HeLa Kyoto [4] (cell cycle stage: mitosis) were -0.726 and -1.7, respectively.

Take “MTTYLEFIQQNEERDGVRFSWNVWPSSRLEATRMVVPVAALFTPLKERPDLPPIQYEPVLCSRTTCRAVLNPLCQVDYRAKLWACNFCYQRNQFPPSYAGISELNQPAELLPQFSSIEYVVLRGPQMPLIFLYVVDTCMEDEDLQALKESMQMSLSLLPPTALVGLITFGRMVQVHELGCEGISKSYVFRGTKDLSAKQLQEMLGLSKVPLTQATRGPQVQQPPPSNRFLQPVQKIDMNLTDLLGELQRDPWPVPQGKRPLRSSGVALSIAVGLLECTFPNTGARIMMFIGGPATQGPGMVVGDELKTPIRSWHDIDKDNAKYVKKGTKHFEALANRAATTGHVIDIYACALDQTGLLEMKCCPNLTGGYMVMGDSFNTSLFKQTFQRVFTKDMHGQFKMGFGGTLEIKTSREIKISGAIGPCVSLNSKGPCVSENEIGTGGTCQWKICGLSPTTTLAIYFEVVNQHNAPIPQGGRGAIQFVTQYQHSSGQRRIRVTTIARNWADAQTQIQNIAASFDQEAAAILMARLAIYRAETEEGPDVLRWLDRQLIRLCQKFGEYHKDDPSSFRFSETFSLYPQFMFHLRRSSFLQVFNNSPDESSYYRHHFMRQDLTQSLIMIQPILYAYSFSGPPEPVLLDSSSILADRILLMDTFFQILIYHGETIAQWRKSGYQDMPEYENFRHLLQAPVDDAQEILHSRFPMPRYIDTEHGGSQARFLLSKVNPSQTHNNMYAWGQESGAPILTDDVSLQVFMDHLKKLAVSSAA [SEC23A]”: the “solubility in G1/S (log2)” value with HeLa Kyoto [1] was -0.0681. The melting temperature worked out at 50 °C with HeLa Kyoto [2] (cell cycle stage: G1/S) and 50.2 °C with HeLa Kyoto [2] (cell cycle stage: mitosis). Also, in the series on HeLa Kyoto [3], the “solubility change mitosis (log2)” value is -0.0745. In addition, the values for the thermal stability score with HeLa Kyoto [4] (setting [5]) and in the series on HeLa Kyoto [4] (cell cycle stage: mitosis) were -0.157 and 0.129, respectively.

Turning to “MVAACRSVAGLLPRRRRCFPARAPLLRVALCLLCWTPAAVRAVPELGLWLETVNDKSGPLIFRKTMFNSTDIKLSVKSFHCSGPVKFTIVWHLKYHTCHNEHSNLEELFQKHKLSVDEDFCHYLKNDNCWTTKNENLDCNSDSQVFPSLNNKELINIRNVSNQERSMDVVARTQKDGFHIFIVSIKTENTDASWNLNVSLSMIGPHGYISASDWPLMIFYMVMCIVYILYGILWLTWSACYWKDILRIQFWIAAVIFLGMLEKAVFYSEYQNISNTGLSTQGLLIFAELISAIKRTLARLLVIIVSLGYGIVKPRLGTVMHRVIGLGLLYLIFAAVEGVMRVIGGSNHLAVVLDDIILAVIDSIFVWFIFISLAQTMKTLRLRKNTVKFSLYRHFKNTLIFAVLASIVFMGWTTKTFRIAKCQSDWMERWVDDAFWSFLFSLILIVIMFLWRPSANNQRYAFMPLIDDSDDEIEEFMVTSENLTEGIKLRASKSVSNGTAKPATSENFDEDLKWVEENIPSSFTDVALPVLVDSDEEIMTRSEMAEKMFSSEKIM [TMEM87B]”, the “solubility in G1/S (log2)” value with HeLa Kyoto [1] is -0.12. In addition, the melting temperature in the series with HeLa Kyoto [2] (cell cycle stage: G1/S) was found to be 55.1 °C; with HeLa Kyoto [2] (cell cycle stage: mitosis), 54.9 °C. In addition, in the series with HeLa Kyoto [3], the “solubility change mitosis (log2)” value is -0.177. Besides, the figures for the thermal stability score in the series with HeLa Kyoto [4] (setting [5]) and in the series on HeLa Kyoto [4] (cell cycle stage: mitosis) were -3.16 and -3.29, respectively.
